From a protein production outcome set (Wang et al. 2014)

Assay: label from the status in PepcDB records
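Further: failed if final PepcDB status was selected cloned or expressed and not failed if soluble or beyond.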

| Sequence | protein production |
| --- | --- |
| MMSVLARMRVMRHRAWQGLVLLVLALLLSSCGWRGISNVAIPGGPGTGPGSYTIYVQMPDTLAINGNSRVMVADVWVGSIRAIKLKNWVATLTLSLKKDVTLPKNATAKIGQTSLLGSQHVELAAPPDPSPVPLKDGDTIPLKRSSAYPTTEQTLASIATLLRGGGLVNLEGIQQEINAIVTGRADQIRAFLGKLDTFTDELNQQRDDITRAIDSTNRLLAYVGGRSEVLNRVLTDLPPLIKHFADKQELLINASDAVGRLSQSADQYLSAARGDLHQDLQALQCPLKELRRAAPYLVGALKLILTQPFDVDTVPQLVRGDYMNLSLTLDLTYSAIDNAFLTGTGFSGALRALEQSFGRDPETMIPDIRYTPNPNDAPGGPLVERGNRQC | failed |
| MNKRPASGTGHSVLRRSTRRQLLGAAAGATAALCGCLDDNGTDRTEPLDVSIGDVATYRYGPQRRGVADTTVPETAPDERWRLNTDWPVRAAPAVVGGVVYHCGNGLAAVDAVDGERLWRVDTDGPSETPPAVADGVVFAGTHRGRLHAINSDGTEHWTASGNGRIDAAPVVVDGRVYTASRATDGEVYAFEAGGREWTHEAVYRVNSPPAVADGLVFVGGWEGAVYGIDADSGERQWRTATDGPVLSSPAVADGRVFAGGNDGVVRALDVADGDERWQVETAATPTAPAVADGSLYVGDADGRLRRLDAATGEEGWQVTVASGIGVPPTVVEGTVVVGTTDGGVVAVDAADGTERWRVDTGERIRSQPVLAAGRVFVGSGRRLLALGK | failed |
| MWYYFQPKRLCHNSFMIPEKLLTYTKTIFEYSHSTVYIKDKNFHYQYMNNRGLKQLQLQEKDIMGMPDKALPFGKYAHFYNSHDYSAMEEIIYFQLDDCITKNGEKIFALSHKLPLKDEDGKTHGVIGFTKFMNLHQLMNNLNSKNTFLTPNLKINVNVDDWLKTTINLSRREMEVLYYFLQGKSIKLIAPLLHITERTVIFHLNNIKSKWGCYNKEDIYTKSFEKGLKNLTIIWDLLAMRS | failed |
| MKVRNVIIGFMVASLTGCSMGHRDPVEIKQTLDKSINENGGLLLADLPASVQADLMPELNTPHVEVEEPVKRFRVRANGVGAKAFFTSLVKGTEYSVVIHPQVSGRITMNLSDVTMDDVLSSVEDLYGYDIVKAGKVLQVYPATIRTETIPVDYLQLTRKGRSLTTITTGSITNSDNNSSNNNNSSSKSNNNSSSSSSSATGGTEIETTSESDFWKELETAISVMIGNGADRSVVVSPQASVVTITASPDELRKVKQFLGTSHKRLQRQVILEAKLLEVTLSDGYQQGINWSNLTASLGGTDVVFGQTSGLVQGALPGMDTIGTLLGGQTNITVSDGNFQAVLSFMDTQGDLNVLSSPRVTAANNQKAVIKVGRDEYYVTEVSSVTGSGDNSNASPEVTLTPFFSGISLDVTPQIDDKGNVMLHVHPSVIDVENEVKEIDLGDVGGVLKLPLAKSSIRESDSVIRAKSGDVVVIGGLMKSQTVDQVSKVPLLGDVPALGHLFRNVSQLTQKTELVILLKPTVVGVDTWQEELERSRDLLQEWFPDELEHHHHHH | not failed |
| MKIGFLGFGKSNRSLLKYLLNHQEAKFFVSEAKTLDGETKKFLEEHSVEYEEGGHTEKLLDCDVVYVSPGIKPDTSMIELLSSRGVKLSTELQFFLDNVDPKKVVGITGTDGKSTATALMYHVLSGRGFKTFLGGNFGTPAVEALEGEYDYYVLEMSSFQLFWSERPYLSNFLVLNISEDHLDWHSSFKEYVDSKLKPAFLQTEGDLFVYNKHIERLRNLEGVRSRKIPFWTDENFATEKELIVRGKKYTLPGNYPYQMRENILAVSVLYMEMFNELESFLELLRDFKPLPHRMEYLGQIDGRHFYNDSKATSTHAVLGALSNFDKVVLIMCGIGKKENYSLFVEKASPKLKHLIMFGEISKELAPFVGKIPHSIVENMEEAFEKAMEVSEKGDVILLSPGGASFDMYENYAKRGEHFREIFKRHGGDEV | failed |
| MLRTFVLMFFTSLSFIVAYYITFSPLILAEFSHALIDFLTIAFSIIAIKFIGENEVAEGRFSYGLHRLEVVVAMINLIIIILLSLAVAYTSVTSLFKETTNDSFTLIVSSALASFLTYFASPKERNDLGKKGLYMHILSDFLGYIMGFIIGILIFISGIRELDPVGAIILVILNFALSIPLLKEAFLIFMEGSSVKIDHIMEELTKISPSVHHLHVWSICDHVKVATLHVKVSPNLTIAEADKIRGSICDFLKEKYGISHVTVQFETNVDD | failed |
